Reference: patent US20250376518A1 (UNIVERSITE DE MONTPELLIER, published 2025)

Tests used:
[1] = target: T1, rat SNAP-tagged mGlu2 receptor (wild-type rat mGlu2 subunit with an HA-tag and a SNAP inserted just after the … (rat, UniProt P31421 19-872, SNAP tag labelled with SNAP-Lumi4-Tb in the TR-FRET binding assay)); assay: TR-FRET saturation binding on HEK293 cells with Lumi4-Tb-labelled rat SNAP-mGlu2, anti-6His-d2; inactive conformation (1 uM LY341495)
T1 construct: whole, on cells; Transiently transfected HEK293 cells; also called SNAP-mGlu2; mGluR2; not shown: HA-tag inserted just after the signal peptide; SNAP tag inserted just after the signal peptide
Procedure: (§1) Each datapoint represents the mean±s.d. of an individual experiment performed in triplicate.
(§2) Binding experiments by TR-FRET. HEK293 cells (ATCC CRL-1573) were transfected with rat SNAP-tagged mGlu2 receptors (Maurel et al. Nature Methods 2008). 24 h after transfection, cells were labeled in 150 mm cell culture plate with 100 nM SNAP-Lumi4Tb in DMEM-GlutaMAX for 1 h at 37° C., and then washed 3 times with Krebs buffer (10 mM Hepes pH7.4, 146 mM NaCl, 4.2 mM KCl, 1 mM CaCl2, 0.5 mM MgCl2, 5.6 mM glucose and bovine serum albumin 0.1%). Cells were detached using cell dissociation buffer (Sigma aldrich) transferred at 10 000 cells per well in a white 384-well plate (Greiner bio-one, PS, F-bottom, small volume, Hibase, medium binding). Increasing concentration of His-tagged nanobodies together with either 1 μM LY379268 (Tocris, Bio-techne, France) or 1 μM LY341495 (Tocris, Bio-techne, France) and with 200 nM of anti-6His-d2 (Tocris, Bio-techne, France) were applied on Lumi4Tb-labeled cells in a final volume of 20 μL and incubated overnight at 20° C. FRET signal was determined by measuring the sensitized acceptor emission (665 nm) and Tb donor emission (620 nm) using a 50 μs delay and 450 us integration time upon excitation at 337 nm on a PHERAstar FS plate-reader (BMG LabTech, Ortenberg, Germany). TR-FRET (or HTRF) ratio (665 nm/620 nm×10⁴, Cisbio patent 8 U.S. Pat. No. 5,527,684) was calculated for preventing interferences due to medium variability and chemical compound or to normalize experiments when using cells expressing different receptor levels.

[2] = target: T1, rat SNAP-tagged mGlu2 receptor …; assay: cell-based or functional assay
[3] = target: T1, rat SNAP-tagged mGlu2 receptor …; assay: TR-FRET saturation binding on HEK293 cells with Lumi4-Tb-labelled rat SNAP-mGlu2, anti-6His-d2; active conformation (1 uM LY379268)
Procedure: as §1, §2

[4] = target: T1, rat SNAP-tagged mGlu2 receptor …; assay: cell-based or functional assay; remark: listed apart in the source
[5] = target: T1, rat SNAP-tagged mGlu2 receptor …; assay: apparent affinity, TR-FRET saturation binding on HEK293 cells with SNAP-mGlu2, in the presence of agonist LY379268 1 uM
Procedure: as §2, with “Increasing concentration of His-tagged nanobodies together with either 1 μM LY379268 (Tocris, Bio-techne, France) or 1 μM LY341495 (Tocris, Bio-techne, France) and with 200 nM of anti-6His-d2 (Tocris, Bio-techne, France) were applied on Lumi4Tb-labeled cells in a final volume of 20 μL and incubated overnight at 20° C.” left out, “levels. […]” for “levels.”

[6] = target: T1, rat SNAP-tagged mGlu2 receptor …; assay: TR-FRET saturation binding on HEK293 cells with SNAP-mGlu2, in the presence of agonist LY379268 1 uM; reference IGF1168
Procedure: as §2, with “Increasing concentration of His-tagged nanobodies together with either 1 μM LY379268 (Tocris, Bio-techne, France) or 1 μM LY341495 (Tocris, Bio-techne, France) and with 200 nM of anti-6His-d2 (Tocris, Bio-techne, France) were applied on Lumi4Tb-labeled cells in a final volume of 20 μL and incubated overnight at 20° C.” left out, “levels. […]” for “levels.”

[7] = target: T2, mouse mGlu2 receptor in brain tissue sections of wild-type C57BL/6J mice (mouse, UniProt Q14BI2 19-872); assay: ex vivo immunohistofluorescence on mouse brain sections; no labeling in sections from mGlu2-/- mouse
T2 construct: whole, on cells; Endogenous receptor in fixed tissue sections; mGlu2-/- mouse sections were the negative control
Procedure: Histological processing of brains. Wild-type C57BL/6J mice were purchased from Janvier Labs and brains from mGlu2−/− mice were kindly provided by Dr. Gonzalez-Maeso. Mice were anesthetized (Euthasol Vet 8%, Alcyon, Pau, France) and sacrificed by a cardiac perfusion of 4% paraformaldehyde (PFA). Brains were extracted and fixed in a 4% PFA solution (Euromedex, Souffelweyersheim, France) overnight at 4° C. Brains were rinsed in PBS and cryoprotected in a 30% sucrose solution for 4 days at 4° C. Brains were then included in OCT (Tissue-Tek, Sakura Finetek, Villeneuve d′Asq, France), quickly frozen in acetone chilled on dry ice and conserved at −80° C. until use. Frozen brains included in OCT, were put at −20° C. 24 h prior cryo-sectioning. They were then mounted on a cryostat (Leica, Nanterre, France) and 16 um coronal or sagittal sections were performed and directly mounted on Superfrost Plus glass slides (Microm) and kept at −20° C., until use. For immunohistofluorescence experiments, coronal and sagittal brain tissue sections of WT and mGlu2^{-/-} mice were blocked 1 h at 25° C. with a blocking solution (3% BSA, 0.1% Triton X100 in PBS) and incubated with IGF1202-d2 (200 nM), overnight at 4° C., to label mGlu2 receptors. Sections were washed with PBS with distilled water and mounted using […]

T1 sequence (P31421 19-872): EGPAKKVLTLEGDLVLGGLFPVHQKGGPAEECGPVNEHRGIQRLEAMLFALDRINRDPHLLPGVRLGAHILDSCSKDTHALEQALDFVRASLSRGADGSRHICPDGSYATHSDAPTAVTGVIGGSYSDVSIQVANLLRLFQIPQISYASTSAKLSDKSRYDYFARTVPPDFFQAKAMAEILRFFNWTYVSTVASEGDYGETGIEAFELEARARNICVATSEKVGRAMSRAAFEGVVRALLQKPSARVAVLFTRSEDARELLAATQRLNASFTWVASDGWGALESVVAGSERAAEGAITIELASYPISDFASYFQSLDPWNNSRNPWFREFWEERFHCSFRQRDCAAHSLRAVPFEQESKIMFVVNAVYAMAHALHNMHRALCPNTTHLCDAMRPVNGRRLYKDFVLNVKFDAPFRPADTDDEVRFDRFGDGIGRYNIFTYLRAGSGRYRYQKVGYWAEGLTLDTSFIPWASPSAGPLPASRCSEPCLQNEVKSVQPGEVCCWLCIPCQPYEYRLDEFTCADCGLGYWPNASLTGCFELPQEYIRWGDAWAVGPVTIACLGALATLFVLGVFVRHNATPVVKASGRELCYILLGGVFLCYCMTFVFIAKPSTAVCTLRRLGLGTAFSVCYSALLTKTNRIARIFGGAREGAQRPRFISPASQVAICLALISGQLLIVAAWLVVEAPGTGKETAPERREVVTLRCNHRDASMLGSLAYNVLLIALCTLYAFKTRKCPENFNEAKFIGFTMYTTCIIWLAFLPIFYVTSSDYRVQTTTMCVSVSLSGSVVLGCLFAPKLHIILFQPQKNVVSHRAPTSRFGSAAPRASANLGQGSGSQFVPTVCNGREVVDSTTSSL
T2 sequence (Q14BI2 19-872): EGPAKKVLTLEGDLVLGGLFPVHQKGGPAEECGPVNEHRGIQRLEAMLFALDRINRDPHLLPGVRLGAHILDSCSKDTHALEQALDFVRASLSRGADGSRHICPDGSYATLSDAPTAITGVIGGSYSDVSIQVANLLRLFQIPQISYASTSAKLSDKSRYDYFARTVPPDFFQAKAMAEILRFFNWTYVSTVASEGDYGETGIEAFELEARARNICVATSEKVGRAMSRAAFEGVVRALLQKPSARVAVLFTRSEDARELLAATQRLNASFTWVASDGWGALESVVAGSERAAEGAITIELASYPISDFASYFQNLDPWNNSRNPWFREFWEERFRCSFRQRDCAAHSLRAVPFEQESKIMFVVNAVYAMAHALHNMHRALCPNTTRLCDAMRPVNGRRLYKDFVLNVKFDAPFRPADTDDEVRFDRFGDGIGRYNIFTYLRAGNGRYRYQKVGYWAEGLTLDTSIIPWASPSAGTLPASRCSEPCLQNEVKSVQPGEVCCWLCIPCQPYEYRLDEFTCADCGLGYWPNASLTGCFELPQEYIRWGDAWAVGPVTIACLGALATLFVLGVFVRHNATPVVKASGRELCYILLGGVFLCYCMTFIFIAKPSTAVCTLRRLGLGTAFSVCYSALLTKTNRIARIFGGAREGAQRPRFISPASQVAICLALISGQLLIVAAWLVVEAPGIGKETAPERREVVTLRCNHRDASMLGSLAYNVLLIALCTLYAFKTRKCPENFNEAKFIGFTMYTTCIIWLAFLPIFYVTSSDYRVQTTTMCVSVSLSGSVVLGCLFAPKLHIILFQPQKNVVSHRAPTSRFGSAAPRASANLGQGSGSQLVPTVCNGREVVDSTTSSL

B1: IGF-1201 (IGF-1168 GS IGF-1159) (VHH)
chain: QVQLVQSGGGLVQAGGSLRLSCAASVRFFSINTMGWYRQAPGKQRELVADITSSGSTNYADSGKGRFTISRDNAKNTVYLQMNRLKPEDTAVYYCHADYKYTTHNTAWGQGTQVTVSSGGGGSGGGGSGGGGSQVQLVQSGGGLVQAGGSLRLSCAASGRTFSSFAMAWFRQAPGKEREFVAAISWSGSTGHADSVKGRFTITRDNAKNTVFLQMNSLKPEDTAVYYCALGKGSSYYYSPSGYDYWGQGTQVTVSSLEHHHHHH
notes: Bivalent biparatopic nanobody, two VHH in tandem
In the case of B1, the pKd [1] is reported as 8.95 -log10 M, the “pEC50 of the PAM effect on G protein coupling (IP1 accumulation with 0.6 nM LY379268, EC20)” value (“pEC50 of the PAM effect” below) [2] is reported as 8.25 -log10 M and the pKd [3] is reported as 9.34 -log10 M.

B2: IGF-1202 (IGF-1168 HcAb IGF-1159), biparatopic IGF1202-tag6xHIS (VHH)
chain: QVQLVQSGGGLVQAGGSLRLSCAASVRFFSINTMGWYRQAPGKQRELVADITSSGSTNYADSGKGRFTISRDNAKNTVYLQMNRLKPEDTAVYYCHADYKYTTHNTAWGQGTQVTVSSEPKIPQPQPKPQPQPQPQPQPKPQPKPEPQVQLVQSGGGLVQAGGSLRLSCAASGRTFSSFAMAWFRQAPGKEREFVAAISWSGSTGHADSVKGRFTITRDNAKNTVFLQMNSLKPEDTAVYYCALGKGSSYYYSPSGYDYWGQGTQVTVSSLEHHHHHH
B2 was tested, and the “pEC50, PAM potency (IP1 accumulation)” value [4] was 9.16 -log10 M, the pKd [1] was 8.87 -log10 M and the Kd [5] was 0.3 nM. The “pEC50 of the PAM effect” value [2] was 8.81 -log10 M, the pKd [3] was 9.27 -log10 M and the “fold increase in the apparent affinity compared to IGF1168” value [6] was 10 fold.

B3: IGF-1251 (IGF-1159 GS IGF-1168) (VHH)
chain: QVQLVQSGGGLVQAGGSLRLSCAASGRTFSSFAMAWFRQAPGKEREFVAAISWSGSTGHADSVKGRFTITRDNAKNTVFLQMNSLKPEDTAVYYCALGKGSSYYYSPSGYDYWGQGTQVTVSSGGGGSGGGGSGGGGSQVQLVQSGGGLVQAGGSLRLSCAASVRFFSINTMGWYRQAPGKQRELVADITSSGSTNYADSGKGRFTISRDNAKNTVYLQMNRLKPEDTAVYYCHADYKYTTHNTAWGQGTQVTVSSLEHHHHHH
notes: as for B1
B3 was tested, and the pKd [1] was 8.54 -log10 M, the “pEC50 of the PAM effect” value [2] was 7.65 -log10 M and the pKd [3] was 8.99 -log10 M.

B4: IGF-1252 (IGF-1159 HcAb IGF-1168) (VHH)
chain: QVQLVQSGGGLVQAGGSLRLSCAASGRTFSSFAMAWFRQAPGKEREFVAAISWSGSTGHADSVKGRFTITRDNAKNTVFLQMNSLKPEDTAVYYCALGKGSSYYYSPSGYDYWGQGTQVTVSSEPKIPQPQPKPQPQPQPQPQPKPQPKPEPQVQLVQSGGGLVQAGGSLRLSCAASVRFFSINTMGWYRQAPGKQRELVADITSSGSTNYADSGKGRFTISRDNAKNTVYLQMNRLKPEDTAVYYCHADYKYTTHNTAWGQGTQVTVSSLEHHHHHH
notes: as for B1
B4 was tested, and the pKd [1] was 8.49 -log10 M, the “pEC50 of the PAM effect” value [2] was 7.94 -log10 M and the pKd [3] was 8.77 -log10 M.

B5: IGF-1261 (IGF-1168 GS IGF-1168) (VHH)
chain: QVQLVQSGGGLVQAGGSLRLSCAASVRFFSINTMGWYRQAPGKQRELVADITSSGSTNYADSGKGRFTISRDNAKNTVYLQMNRLKPEDTAVYYCHADYKYTTHNTAWGQGTQVTVSSGGGGSGGGGSGGGGSQVQLVQSGGGLVQAGGSLRLSCAASVRFFSINTMGWYRQAPGKQRELVADITSSGSTNYADSGKGRFTISRDNAKNTVYLQMNRLKPEDTAVYYCHADYKYTTHNTAWGQGTQVTVSSLEHHHHHH
In the case of B5, the “pEC50 of the PAM effect” value [2] is reported as 7.62 -log10 M and the pKd [3] is reported as 8.51 -log10 M.

B6: IGF-1262 (IGF-1168 HcAb IGF-1168) (VHH)
chain: QVQLVQSGGGLVQAGGSLRLSCAASVRFFSINTMGWYRQAPGKQRELVADITSSGSTNYADSGKGRFTISRDNAKNTVYLQMNRLKPEDTAVYYCHADYKYTTHNTAWGQGTQVTVSSEPKIPQPQPKPQPQPQPQPQPKPQPKPEPQVQLVQSGGGLVQAGGSLRLSCAASVRFFSINTMGWYRQAPGKQRELVADITSSGSTNYADSGKGRFTISRDNAKNTVYLQMNRLKPEDTAVYYCHADYKYTTHNTAWGQGTQVTVSSLEHHHHHH
B6 was tested, and the “pEC50 of the PAM effect” value [2] was 7.2 -log10 M and the pKd [3] was 8.23 -log10 M.

B7: IGF-1168 nanobody (VHH)
VHH: QVQLVQSGGGLVQAGGSLRLSCAASVRFFSINTMGWYRQAPGKQRELVADITSSGSTNYADSGKGRFTISRDNAKNTVYLQMNRLKPEDTAVYYCHADYKYTTHNTAWGQGTQVTVSS
notes: PAM nanobody, mGlu2 specific; not shown: His tag (nanobodies in the assay are His-tagged)
With B7 the “pEC50, PAM potency (IP1 accumulation)” value [4] was 7.22 -log10 M and the Kd [5] was 4.93 nM.

B8: IGF1202-d2 (red-labeled IGF1202) (VHH)
chain: B2 chain
modifications: d2 fluorophore coupled with d2-NHS, conditions set for 2 to 3 fluorophores per nanobody; sites not stated
notes: also called red-labled IGF1202
B8: binds [7].
